# Assay results from publication PMC3353895, “Crystal Structure of a Complex of DNA with One AT-Hook of HMGA1”.
# B1: d(CGAATTAATTCG)2 (dsDNA)
# DNA 1: CGAATTAATTCG
# DNA 2: CGAATTAATTCG
# Target: T1, HMGA1 third AT-hook (DBD3) peptide (UniProt P17096 81-89)
# T1 chain: RKPRGRPKK
# Assay: X-ray crystallography; crystals: 5 mM MgCl2, 0.25 mM NiCl2, MPD up to 48%; 1:2 duplex:peptide; 2.27 A; only one of two AATT sites occupied; Crystallization by vapor diffusion: 25 mM Tris-HCl pH 7.5, 25 mM ammonium acetate, 5 mM MgCl2, 0.25 mM NiCl2, 5% MPD (raised to 48%), 0.2 mM DNA, 0.4 mM peptide, 4 C
# Conditions: blunt; self-complementary, 2 copies of the strand
binder,measurement,value
B1,binding result,binds
